Bridge positions count the residues as written; N and C are the ends. Ends that are not written are not given here.
How the values were obtained:
[1] = molecular target: VEGF (form and enantiomer not stated at paragraph 530); experiment: Octet-SPR, preliminary estimate, reference RFX001
[2] = molecular target: VEGF (form and enantiomer not stated at paragraph 530); experiment: standard SPR, preliminary estimate, reference RFX001

Chain of VEGF (form and enantiomer not stated at paragraph 530) (P15692 whole entry): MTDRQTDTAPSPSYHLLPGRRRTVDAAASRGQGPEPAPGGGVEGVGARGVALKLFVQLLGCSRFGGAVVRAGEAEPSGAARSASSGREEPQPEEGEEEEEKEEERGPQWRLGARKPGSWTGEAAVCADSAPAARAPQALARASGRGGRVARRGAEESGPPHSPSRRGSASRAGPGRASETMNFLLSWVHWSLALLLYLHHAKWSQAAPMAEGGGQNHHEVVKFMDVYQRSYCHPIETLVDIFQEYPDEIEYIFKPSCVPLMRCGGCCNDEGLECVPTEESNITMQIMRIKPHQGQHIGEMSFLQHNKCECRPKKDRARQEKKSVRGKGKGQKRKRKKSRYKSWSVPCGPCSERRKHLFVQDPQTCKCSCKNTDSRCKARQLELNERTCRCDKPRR

B1: RFX002 (enantiomer and preparation not stated at paragraph 530) (designed binder)
chain: TYKMILNGKTLKSECTTEAVDLFDAFDVLFVCAASNFSFIDDWTYDDATKTFTVTE
modifications: disulfide 15-32 (inferred); also: enantiomer (L- or D-form) not given here
[1]
  fold increase of binding affinity against RFX001: ~5 fold
[2]
  fold increase of binding affinity against RFX001: ~2 fold
